B1: Full-length human Cdc37 [human] / Catalytic domain of bRaf [not stated] (parent complex)
chain 1: MVDYSVWDHIEVSDDEDETHPNIDTASLFRWRHQARVERMEQFQKEKEELDRGCRECKRKVAECQRKLKELEVAEGGKAELERLQAEAQQLRKEERSWEQKLEEMRKKEKSMPWNVDTLSKDGFSKSMVNTKPEKTEEDSEEVREQKHKTFVEKYEKQIKHFGMLRRWDDSQKYLSDNVHLVCEETANYLVIWCIDLEVEEKCALMEQVAHQTIVMQFILELAKSLKVDPRACFRQFFTKIKTADRQYMEGFNDELEAFKERVRGRAKLRIEKAMKEYEEEERKKRLGPGGLDPVEVYESLPEELQKCFDVKDVQMLQDAISKMDPTDAKYHMQRCIDSGLWVPNSKASEAKEGEEAGPGDPLLEAVPKTGDEKDVSV
chain 2: ITVGQRIGSGSFGTVYKGKWHGDVAVKMLNVTAPTPQQLQAFKNEVGVLRKTRHVNILLFMGYSTKPQLAIVTQWCEGSSLYHHLHIIETKFEMIKLIDIARQTAQGMDYLHAKSIIHRDLKSNNIFLHEDLTVKIGDFGLATVKSRWSGSHQFEQLSGSILWMAPEVIRMQDKNPYSFQSDVYAFGIVLYELMTGQLPYSNINNRDQIIFMVGRGYLSPDLSKVRSNCPKAMKRLMAECLKKKRDERPLFPQILASIELL

Variants of: B1
Test: ITC; read off a plot

Variant	Kd
chain 1 Y4E, chain 1 Y298E	~2.1 µM
chain 1 Y298E	~1.9 µM
chain 1 Y4E	~1 µM

From article PMC5772613, “Phosphorylation induced cochaperone unfolding promotes kinase recruitment and client class-specific Hsp90 phosphorylation” (Nature Communications, 2018)
